Columns and labels:
[1] = substrate: CCCCC[C@@H](O)CC(=O)SCCNC(=O)CCNC(=O)[C@H](O)C(C)(C)COP(=O)(O)OP(=O)(O)OC[C@H]1O[C@@H](n2cnc3c(N)ncnc32)[C@H](O)[C@@H]1OP(=O)(O)O; assay: purified protein; type: biochemical, Pseudomonas aeruginosa; details: 50 mM PBS, pH 7.5, 20 mM MgCl2, 0.5 mM DTNB, R/S substrate mixture, R isomer counted
[2] = substrate: C[C@@H](O)CC(=O)SCCNC(=O)CCNC(=O)[C@H](O)C(C)(C)COP(=O)(O)OP(=O)(O)OC[C@H]1O[C@@H](n2cnc3c(N)ncnc32)[C@H](O)[C@@H]1OP(=O)(O)O; assay: purified protein; type: biochemical, Cupriavidus pinatubonensis; details: 50 mM PBS, pH 7.5, 20 mM MgCl2, 0.5 mM DTNB, R/S substrate mixture, R isomer counted

B1: PhaC1Pa (Pseudomonas aeruginosa PAO1) (protein)
chain: MSQKNNNELPKQAAENTLNLNPVIGIRGKDLLTSARMVLLQAVRQPLHSARHVAHFSLELKNVLLGQSELRPGDDDRRFSDPAWSQNPLYKRYMQTYLAWRKELHSWISHSDLSPQDISRGQFVINLLTEAMSPTNSLSNPAAVKRFFETGGKSLLDGLGHLAKDLVNNGGMPSQVDMDAFEVGKNLATTEGAVVFRNDVLELIQYRPITESVHERPLLVVPPQINKFYVFDLSPDKSLARFCLRNGVQTFIVSWRNPTKSQREWGLTTYIEALKEAIEVVLSITGSKDLNLLGACSGGITTATLVGHYVASGEKKVNAFTQLVSVLDFELNTQVALFADEKTLEAAKRRSYQSGVLEGKDMAKVFAWMRPNDLIWNYWVNNYLLGNQPPAFDILYWNNDTTRLPAALHGEFVELFKSNPLNRPGALEVSGTPIDLKQVTCDFYCVAGLNDHITPWESCYKSARLLGGKCEFILSNSGHIQSILNPPGNPKARFMTNPELPAEPKAWLEQAGKHADSWWLHWQQWLAERSGKTRKAPASLGNKTYPAGEAAPGTYVHER
notes: full length, C-terminal His6 tag, pET28a, E. coli BL21(DE3), Ni-NTA purified
Work on B1 yielded a Km [1] of 67.28 ± 12.86 µM, a Vmax [1] of 39 µM/min and a kcat [1] of 0.94 ± 0.0883 s⁻¹. For the same protein, the kcat/Km [1] was 13800 ± 4170 M⁻¹ s⁻¹.

B2: PhaC2 (Cupriavidus pinatubonensis JMP134) (protein)
chain: MTTAVGTRTLAKTTKKAKKPAASAVAPEAIVDSAPAMTGPNPFVGLRPEDMVSTAQQIGAQCVQEPTLLLQQQTKLAQDLFAVVDGSAPPPCTRDRRFGDPAWQDNPVYRMALQGYQAWRDALTGFVTGSVMDGRSKERAQYFTDLLIDAVAPTNTLLGNPAALRKTFESGGLNLVSGLVNLLTDTLTNQGMPSQVDKSAFRIGKDLAATPGAVVFRNDVLELIQYTPTTANVHARPQLIVPPQVNKFYVFDLSQGKSMVEYLVRNEMQVFMVSWRNPTTLHRDWNLDTYVGALIEAIHAIRDITGSPDVNLHGACSGAMTMSALMGYCAARGEKLVNAATLMVSVFGLDSQSQLGLFATPEAIDAARQGSQARGVLDGGELGRVFAWMRPNDLVWNYWVNNYLLGKAPPAFDILYWNNDTTRLPAGLHGQLLDMLTLNQLSTPGALRVLGQPIDLSAVDCDKYVLAGMTDHITPWKGVYRSVRAFGGKTEFVLSSSGHVQSLINPPGNAKAKFFLNDAQMADPEAWLEGATVTPSSWWEHWSEWLKTRSGPLNAAPSRLGSDRHAPCADAPGRYVTEA
notes: full length (579 residues), C-terminal His6 tag, pET28a, E. coli BL21(DE3), Ni-NTA purified, about 65 kDa
Work on B2 yielded a Km [2] of 115.93 ± 9.15 µM, a Vmax [2] of 1.74 µM/min and a kcat [2] of 0.0625 ± 0.000333 s⁻¹. The kcat/Km [2] was 533 ± 33.3 M⁻¹ s⁻¹.

B3: PhaC1 (Cupriavidus pinatubonensis JMP134) (protein)
chain: MATGKGAAASSTEGKSQPFKFPPGPLDPATWLEWSRQWQGPEGNGGTVPGGFPGFEAFAASPLAGVKIDPAQLAEIQQRYMRDFTELWRGLAGGDTESAGKLHDRRFASEAWHKNAPYRYTAAFYLLNARALTELADAVEADPKTRQRIRFAVSQWVDAMSPANFLATNPDAQNRLIESRGESLRAGMRNMLEDLTRGKISQTDETAFEVGRNMAVTEGAVVFENEFFQLLQYKPLTDKVYTRPLLLVPPCINKFYILDLQPEGSLVRYAVEQGHTVFLVSWRNPDASMAGCTWDDYIENAAIRAIEVVRDISGQDKINTLGFCVGGTIISTALAVLAARGEHPVASLTLLTTLLDFTDTGILDVFVDEPHVQLREATLGGASGGLLRGVELANTFSFLRPNDLVWNYVVDNYLKGNTPVPFDLLFWNGDATNLPGPWYCWYLRHTYLQNELKEPGKLTVCNEPVDLGAINVPTYIYGSREDHIVPWTAAYASTALLKNDLRFVLGASGHIAGVINPPAKKKRSHWTNDALPESAQDWLAGAEEHHGSWWPDWMTWLGKQAGAKRAAPTEYGSKRYAAIEPAPGRYVKAKA
notes: full length (591 residues), C-terminal His6 tag, pET28a, E. coli BL21(DE3), Ni-NTA purified, about 65 kDa
With B3 the Km [2] was 45.46 ± 6.02 µM, the Vmax [2] was 38.3 µM/min and the kcat [2] was 0.664 ± 0.0352 s⁻¹. The kcat/Km [2] was 14700 ± 3170 M⁻¹ s⁻¹.
